Values belong to the binder of their own block, whether it stands above or below them.
What was measured:
TSC2 [1] = biological target: T1, TSC2 (human, UniProt P49815 1-1807, limits assumed); assay: co-IP from transfected 293T extract, immunoblot (FIG. 11)
T1 construct: TSC2 without a stated tag, endogenous or expressed from transfected cDNA in 293T cell extracts; also called tuberin; endogenous TSC2

HA-tagged TSC2 = biological target: T2, HA-tagged TSC2 (human, UniProt P49815 1-1807); assay: co-IP with anti-FLAG from CoCl2-treated 293T cells (FIG. 25)
T2 construct: Expressed in 293T cells; used as cell extract; also called HA-TSC2; full length HA-tagged TSC2; not shown: HA tag
T2 sequence (P49815 other isoform, or with tags, fused parts or gaps limits assumed): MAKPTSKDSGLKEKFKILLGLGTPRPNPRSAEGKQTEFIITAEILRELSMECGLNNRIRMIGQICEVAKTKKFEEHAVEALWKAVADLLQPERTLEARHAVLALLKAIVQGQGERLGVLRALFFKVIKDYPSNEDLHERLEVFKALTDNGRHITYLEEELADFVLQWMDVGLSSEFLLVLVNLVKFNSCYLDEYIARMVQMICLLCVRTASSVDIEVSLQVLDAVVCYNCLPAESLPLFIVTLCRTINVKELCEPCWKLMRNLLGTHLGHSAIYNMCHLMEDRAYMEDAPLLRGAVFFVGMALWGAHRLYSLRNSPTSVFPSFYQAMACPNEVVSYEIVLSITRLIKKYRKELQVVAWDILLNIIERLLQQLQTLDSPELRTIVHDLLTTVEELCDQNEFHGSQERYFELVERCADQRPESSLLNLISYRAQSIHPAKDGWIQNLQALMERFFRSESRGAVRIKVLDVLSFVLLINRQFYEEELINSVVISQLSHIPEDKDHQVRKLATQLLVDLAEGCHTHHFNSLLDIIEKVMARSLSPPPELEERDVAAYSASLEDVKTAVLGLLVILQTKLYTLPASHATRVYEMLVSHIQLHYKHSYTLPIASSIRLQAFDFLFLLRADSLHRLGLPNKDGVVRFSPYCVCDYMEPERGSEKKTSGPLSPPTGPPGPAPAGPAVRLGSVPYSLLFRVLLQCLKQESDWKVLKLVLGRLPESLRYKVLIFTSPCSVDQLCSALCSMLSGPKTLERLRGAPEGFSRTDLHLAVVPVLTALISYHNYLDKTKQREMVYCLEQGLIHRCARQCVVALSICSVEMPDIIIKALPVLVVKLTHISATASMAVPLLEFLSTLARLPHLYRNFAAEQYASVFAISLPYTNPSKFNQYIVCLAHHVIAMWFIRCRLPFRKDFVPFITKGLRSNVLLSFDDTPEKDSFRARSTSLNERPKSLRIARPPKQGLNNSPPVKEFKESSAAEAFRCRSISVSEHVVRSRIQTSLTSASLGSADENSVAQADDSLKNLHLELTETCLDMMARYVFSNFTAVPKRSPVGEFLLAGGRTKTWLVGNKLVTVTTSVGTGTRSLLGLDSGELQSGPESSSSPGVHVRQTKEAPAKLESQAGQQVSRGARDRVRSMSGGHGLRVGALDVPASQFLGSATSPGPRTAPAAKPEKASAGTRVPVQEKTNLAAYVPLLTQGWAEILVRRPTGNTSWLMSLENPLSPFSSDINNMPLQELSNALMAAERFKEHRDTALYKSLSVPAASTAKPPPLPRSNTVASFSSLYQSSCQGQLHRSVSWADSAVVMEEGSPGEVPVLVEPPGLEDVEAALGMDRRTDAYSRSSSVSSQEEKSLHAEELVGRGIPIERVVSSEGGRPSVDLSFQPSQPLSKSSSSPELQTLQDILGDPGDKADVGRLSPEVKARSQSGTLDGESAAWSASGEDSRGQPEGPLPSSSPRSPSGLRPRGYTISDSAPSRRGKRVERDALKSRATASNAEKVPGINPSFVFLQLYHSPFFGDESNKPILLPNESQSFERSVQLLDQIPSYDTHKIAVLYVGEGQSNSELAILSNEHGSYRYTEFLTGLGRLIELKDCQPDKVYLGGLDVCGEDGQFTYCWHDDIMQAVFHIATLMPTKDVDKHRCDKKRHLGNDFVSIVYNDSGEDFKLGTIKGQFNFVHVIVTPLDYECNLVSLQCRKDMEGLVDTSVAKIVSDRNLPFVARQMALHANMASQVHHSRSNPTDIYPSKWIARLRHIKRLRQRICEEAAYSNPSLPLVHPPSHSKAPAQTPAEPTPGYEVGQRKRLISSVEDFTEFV

[2] = biological target: T3, TSC2 “N” fragment (a.a. 2-935), HA-tagged (human, UniProt P49815 2-935); assay: co-IP with anti-FLAG from 293T extract, anti-HA blot (FIG. 17)
T3 construct: also called HA-“N” fragment of TSC2; not shown: HA tag
T3 sequence (P49815 other isoform, or with tags, fused parts or gaps): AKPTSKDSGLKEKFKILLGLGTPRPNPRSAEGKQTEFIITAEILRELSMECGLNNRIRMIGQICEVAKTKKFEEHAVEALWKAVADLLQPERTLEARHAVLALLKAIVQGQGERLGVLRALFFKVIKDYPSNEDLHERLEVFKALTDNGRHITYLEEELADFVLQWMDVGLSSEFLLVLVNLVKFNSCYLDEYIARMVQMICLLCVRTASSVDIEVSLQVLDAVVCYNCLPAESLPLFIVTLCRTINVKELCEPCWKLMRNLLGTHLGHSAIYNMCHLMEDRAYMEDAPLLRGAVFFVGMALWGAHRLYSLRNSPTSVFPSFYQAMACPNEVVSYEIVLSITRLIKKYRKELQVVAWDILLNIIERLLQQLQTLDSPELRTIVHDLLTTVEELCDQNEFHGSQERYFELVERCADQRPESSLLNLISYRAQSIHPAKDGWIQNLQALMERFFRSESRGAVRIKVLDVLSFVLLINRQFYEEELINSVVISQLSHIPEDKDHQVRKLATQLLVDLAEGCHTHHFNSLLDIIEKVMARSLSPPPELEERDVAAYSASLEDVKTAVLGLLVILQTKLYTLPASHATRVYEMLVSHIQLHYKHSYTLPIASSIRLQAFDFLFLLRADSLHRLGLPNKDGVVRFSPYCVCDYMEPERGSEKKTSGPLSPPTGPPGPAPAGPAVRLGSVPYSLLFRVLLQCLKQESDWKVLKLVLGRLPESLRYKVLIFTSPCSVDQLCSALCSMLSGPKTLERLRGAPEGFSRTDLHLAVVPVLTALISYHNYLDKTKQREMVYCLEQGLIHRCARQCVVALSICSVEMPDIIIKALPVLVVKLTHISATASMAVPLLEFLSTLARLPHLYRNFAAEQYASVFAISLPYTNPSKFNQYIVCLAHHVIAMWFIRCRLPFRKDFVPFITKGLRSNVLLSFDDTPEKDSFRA

TSC2 [3] = biological target: T1, TSC2; assay: summary of Example 6
[4] = biological target: T4, HA-SV5-full length hRTP801 (human, UniProt Q9NX09 1-232); assay: co-IP with M2 anti-FLAG resin from CoCl2-treated 293T HEK extract (FIG. 21)
T4 construct: Expressed in 293T HEK cells; also called HA-full length hRTP801; HA-SV5-hRTP801; not shown: HA tag; SV5 tag
T4 sequence: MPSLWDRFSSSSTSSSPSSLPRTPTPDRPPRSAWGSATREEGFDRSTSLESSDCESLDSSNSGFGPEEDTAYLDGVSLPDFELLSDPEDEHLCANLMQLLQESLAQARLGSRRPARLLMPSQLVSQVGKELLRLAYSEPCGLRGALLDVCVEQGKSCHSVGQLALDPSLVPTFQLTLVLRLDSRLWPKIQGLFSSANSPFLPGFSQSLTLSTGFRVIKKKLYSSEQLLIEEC

TSC2 [5] = biological target: T1, TSC2; assay: pull-down from cell extract with 6XHis baits (FIG. 13)

T1 sequence (P49815 other isoform, or with tags, fused parts or gaps limits assumed): as the sequence (P49815 other isoform, or with tags, fused parts or gaps limits assumed) above

- binding result (TSC2 [1]): binds
- binding result (HA-tagged TSC2): binds
- binding result [2]: binds
B1: FLAG-hRTP801 (other)
chain: T4 sequence
notes: Expressed by transient transfection in 293T cells; full length hRTP801 with FLAG tag; also called FLAG-full length hRTP801; FLAG-RTP801; not shown: FLAG tag

- binding result (TSC2 [3]): binds
B2: hRTP801 (other)
chain: T4 sequence
notes: also called endogenous hRTP801; exogenous hRTP801

- binding result [4]: binds
B3: FLAG-(N-C2)hRTP801 (other)
chain: MPSLWDRFSSSSTSSSPSSLPRTPTPDRPPRSAWGSATREEGFDRSTSLESSDCESLDSSNSGFGPEEDTAYLDGVSLPDFELLSDPEDEHLCANLMQLLQESLAQARLGSRRPARLLMPSQLVSQVGKELLRLAYSEPCGLRGALLDVCVEQGKSCHSVGQLALDPSLVPTFQLTLVLRLDSRLWPKIQGLFSS
notes: also called hRTP801 N-C2 fragment; hRTP801 N-C2 mutant; not shown: FLAG tag

- binding result (TSC2 [5]): no binding
B4: 6XHis hRTP801 N-fragment (other)
chain: MPSLWDRFSSSSTSSSPSSLPRTPTPDRPPRSAWGSATREEGFDRSTSLESSDCESLDSSNSGFGPEEDTAYLDGVSLPDFELLSDPE
notes: not shown: 6XHis tag
